Patent US20170299608A1 (NGM BIOPHARMACEUTICALS, published 2017)

T1: human GFRAL, full length, expressed on HEK293 / HEK293T cells (human, UniProt Q6UXV0 20-394)
T1 construct: Its signal peptide is printed as the lowercase residues 1-19, and the mature protein starts at Q20; also called hGFRAL; HEK293-GFRAL cells
T1 sequence: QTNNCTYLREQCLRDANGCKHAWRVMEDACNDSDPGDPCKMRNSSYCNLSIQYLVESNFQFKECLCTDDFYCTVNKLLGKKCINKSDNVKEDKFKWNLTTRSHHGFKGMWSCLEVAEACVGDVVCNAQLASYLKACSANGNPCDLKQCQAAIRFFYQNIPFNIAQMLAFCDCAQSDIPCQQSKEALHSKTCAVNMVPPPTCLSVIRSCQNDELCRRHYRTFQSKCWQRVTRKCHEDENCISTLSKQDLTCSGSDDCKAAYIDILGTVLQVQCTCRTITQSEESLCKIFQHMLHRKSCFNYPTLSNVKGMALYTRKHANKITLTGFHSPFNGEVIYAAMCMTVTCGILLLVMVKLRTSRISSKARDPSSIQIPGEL

T2: mouse GFRAL, expressed on HEK293T cells (mouse, UniProt Q6SJE0 20-393)
T2 sequence: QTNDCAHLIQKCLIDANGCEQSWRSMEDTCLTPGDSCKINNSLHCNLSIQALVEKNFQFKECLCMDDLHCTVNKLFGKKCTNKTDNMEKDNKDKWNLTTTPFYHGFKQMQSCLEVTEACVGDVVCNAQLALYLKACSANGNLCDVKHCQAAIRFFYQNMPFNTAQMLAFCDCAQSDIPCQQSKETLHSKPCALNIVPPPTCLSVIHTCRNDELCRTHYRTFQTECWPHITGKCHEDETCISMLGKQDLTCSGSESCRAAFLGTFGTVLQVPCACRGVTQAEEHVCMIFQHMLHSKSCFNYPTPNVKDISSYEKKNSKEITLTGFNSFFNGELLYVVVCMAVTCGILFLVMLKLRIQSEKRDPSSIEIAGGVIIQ

T3: rat GFRAL, expressed on HEK293T cells (rat, UniProt D3ZB94 20-394)
T3 sequence: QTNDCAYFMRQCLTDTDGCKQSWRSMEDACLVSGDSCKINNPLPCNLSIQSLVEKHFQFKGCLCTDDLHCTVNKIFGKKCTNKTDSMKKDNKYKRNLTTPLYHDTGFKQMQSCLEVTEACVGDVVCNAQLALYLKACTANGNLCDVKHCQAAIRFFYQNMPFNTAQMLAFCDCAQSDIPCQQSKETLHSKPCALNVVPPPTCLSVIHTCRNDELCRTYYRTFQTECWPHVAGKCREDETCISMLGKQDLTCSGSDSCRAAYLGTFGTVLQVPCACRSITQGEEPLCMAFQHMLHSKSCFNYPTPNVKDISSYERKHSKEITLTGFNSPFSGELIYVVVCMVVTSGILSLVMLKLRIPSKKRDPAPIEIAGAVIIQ

T4: cynomolgus monkey GFRAL, expressed on HEK293T cells (cynomolgus monkey, UniProt Q6UXV0 19-394 (human entry))
T4 chain: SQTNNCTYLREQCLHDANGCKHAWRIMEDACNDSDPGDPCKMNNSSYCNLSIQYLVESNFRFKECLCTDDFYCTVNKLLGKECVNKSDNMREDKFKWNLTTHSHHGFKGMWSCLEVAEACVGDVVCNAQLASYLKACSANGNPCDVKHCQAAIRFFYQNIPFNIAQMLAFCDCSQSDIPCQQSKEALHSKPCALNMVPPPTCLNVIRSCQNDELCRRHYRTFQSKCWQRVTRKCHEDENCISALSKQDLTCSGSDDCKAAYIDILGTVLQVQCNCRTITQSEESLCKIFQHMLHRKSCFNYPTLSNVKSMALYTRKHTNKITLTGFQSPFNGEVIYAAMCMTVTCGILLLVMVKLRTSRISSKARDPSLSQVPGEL

B1: mature human GDF15 (112 amino acids) (ligand)
chain: ARNGDHCPLGPGRCCRLHTVRASLEDLGWADWVLSPREVQVTMCIGACPSQFRAANMHAQIKTSLHRLKPDTVPAPCCVPASYNPMVLIQKTDTGVSLQTYDDLLAKDCHCI
notes: also called hGDF15; unlabeled GDF15
B2: ^125I-GDF15 (radio-iodinated mature human GDF15) (ligand)
chain: B1 chain
modifications: 125I label, site not stated
notes: Labelled form of m1; also called radio-labeled GDF15

Assays:
[1] = molecular target: T1, human GFRAL, full length, expressed on …; experiment: radio-ligand competition: unlabeled GDF15 displacing 0.15 nM ^125I-GDF15 from HEK293-GFRAL cells
Method: HEK293-GFRAL cells were suspended in ice-cold binding buffer (Dulbecco's modified Eagle's medium containing 2 mg/ml BSA, and 25 mM HEPES, pH 7.4) and transferred to pre-wetted Multiscreen filter plates (96-well Dura PVDF 0.65 um Opaque; Millipore), which were kept on ice. Typically, 1×10⁵ of cells in 25 μl were used per well. […] Plates were then transferred to a vacuum filtration manifold (Pall Corporation) and supernatants were filtered. Each well was washed four times with 100 μl of ice cold binding buffer. Bound ¹²⁵I-GDF15 (CPM) were measured by scintillation counting (150 μl/well of EcoLite, MP Biomedicals, Santa Anna, Calif.) using MicroBeta2 Plate Counter (Perkin Elmer). The concentrations (in nM) of unlabeled inhibitors used in this experiment are as follows. GDF15 and GFRAL-Fc: 100, 25, 6.25, 1.56, 0.39, 0.098, 0.024, 0.006; 1M03: 1000, 250, 62.5, 15.63, 3.91, 0.98, 0.24, 0.06.

[2] = molecular target: T1, human GFRAL, full length, expressed on …; experiment: cell-based or functional assay
[3] = molecular target: T2, mouse GFRAL, expressed on HEK293T cells; experiment: cell-based or functional assay
[4] = molecular target: T3, rat GFRAL, expressed on HEK293T cells; experiment: cell-based or functional assay
[5] = molecular target: T4, cynomolgus monkey GFRAL, expressed on …; experiment: cell-based or functional assay
[6] = molecular target: T1, human GFRAL, full length, expressed on …; experiment: radioligand saturation binding to HEK293 cells expressing human GFRAL, equilibrium, 2 hr at 4 °C
Method: HEK293 or HEK293-human GFRAL cells were suspended in ice-cold binding buffer (Dulbecco's modified Eagle's medium containing 2 mg/ml BSA, and 25 mM HEPES, pH 7.4) and transferred to pre-wetted Multiscreen filter plates (96-well Dura PVDF 0.65 um Opaque; Millipore), which were kept on ice. Typically, 1×10⁵ of cells in 25 μl were used per well. Cells were incubated with 25 μl of binding buffer containing serial dilution of ¹²⁵I-GDF15 (2 fold serial dilution from 1000 pM to 0.1 pM final reaction concentration) with or without unlabeled GDF15 (500 nM final reaction concentration) for 2 hr at 4° C. Plates were then transferred to a vacuum filtration manifold (Pall Corporation) and supernatants were filtered. Each well was washed four times with 100 μl of ice cold binding buffer. Bound ¹²⁵I-GDF15 were measured by scintillation counting (150 μl/well of EcoLite, MP Biomedicals, Santa Anna, Calif.) using MicroBeta2 Plate Counter (Perkin Elmer). Bound (molecule/cell) was calculated according to a standard curve correlating CPM and molarity of ¹²⁵I-GDF15.
To determine the binding affinity of GDF15 to GFRAL, radio-labeled ¹²⁵I-GDF15 was used to bind HEK293 cells expressing human GFRAL (FIG. 2A) under equilibrium conditions. […] Excess amount of unlabeled GDF15 (500 nM) reduced the ¹²⁵I-GDF15-GFRAL binding to ‘non-specific’ background level. […]

Binder | IC50 [1] | EC50 of Elk/GAL4-luciferase reporter in HEK293T cells co-transfected with human GFRAL and human RET9 [2] | EC50 of Elk/GAL4-luciferase reporter in HEK293T cells co-transfected with mouse GFRAL and RET9 [3] | EC50 of Elk/GAL4-luciferase reporter in HEK293T cells co-transfected with rat GFRAL and RET9 [4] | EC50 of Elk/GAL4-luciferase reporter in HEK293T cells co-transfected with cynomolgus monkey GFRAL and RET9 [5] | Kd [6]
B1 | 400 pM | 2.1 pM | 1.5 pM | 6.2 pM | 5.2 pM | –
B2 | – | – | – | – | – | ~200 pM
